Values joined by “and” are separate entries in the source; they are usually repeats but may differ in a detail not shown here. Equal entries are not always repeated. Each block holds one molecule with its values, some of them ahead of it.
Columns and labels:
[1] = target: MamAΔ41 RS-1 TM (triple mutant E140A, K141A, E143A) (Desulfovibrio magneticus RS-1); test: SEC; Superdex 200, buffer E (10 mM HEPES pH 7.5, 0.5 M NaCl, 5 mM βME); sizes from elution volumes against a standard calibration curve
[2] = target: MamAΔ41 RS-1 TM (triple mutant E140A, K141A, E143A) (Desulfovibrio magneticus RS-1); test: crystal structure; X-ray, 2.88 Å, space group I4; crystals from 0.1 M Tris pH 8.1, 0.75 M sodium potassium tartrate, 0.5% PEG monomethyl ether 5000; six monomers as two trimeric rings in the asymmetric unit
[3] = target: MamAΔ41 from Desulfovibrio magneticus RS-1 (wild type) (Desulfovibrio magneticus RS-1); test: SEC; Superdex 200, buffer E (10 mM HEPES pH 7.5, 0.5 M NaCl, 5 mM βME); sizes from elution volumes against a standard calibration curve
[4] = target: the molecule itself; test: SEC; Superdex 200; sizes from elution volumes against protein markers; buffer for these proteins not stated

stoichiometry N [1]: 13 and 8
stoichiometry N [2]: 3
Molecule: MamAΔ41 RS-1 TM (triple mutant E140A, K141A, E143A) (domain or fragment)

stoichiometry N [3]: 8
Molecule: MamAΔ41 from Desulfovibrio magneticus RS-1 (wild type) (domain or fragment)

B1: MamAΔ41 from Magnetospirillum gryphiswaldense MSR-1 (domain or fragment, UniProt Q93DY9 42-217, looked up)
chain: DDIRQVYYRDKGISHAKAGRYSEAVVMLEQVYDADAFDVEVALHLGIAYVKTGAVDRGTELLERSIADAPDNIKVATVLGLTYVQVQKYDLAVPLLVKVAEANPVNFNVRFRLGVALDNLGRFDEAIDSFKIALGLRPNEGKVHRAIAYSYEQMGSHEEALPHFKKANELDERSAV
notes: MamA of Magnetospirillum gryphiswaldense MSR-1, Δ41 mutant (the putative N-terminal TPR repeat removed); Trimer by SEC; also called MamAΔ41_(MSR-1)
stoichiometry N [4]: 3
